# B1: BBSome complex member BBS2 (Homo sapiens), Q9BXC9 (parent)
# chain: MLLPVFTLKLRHKISPRMVAIGRYDGTHPCLAAATQTGKVFIHNPHTRNQHVSASRVFQSPLESDVSLLSINQAVSCLTAGVLNPELGYDALLVGTQTNLLAYDVYNNSDLFYREVADGANAIVLGTLGDISSPLAIIGGNCALQGFNHEGSDLFWTVTGDNVNSLALCDFDGDGKKELLVGSEDFDIRVFKEDEIVAEMTETEIVTSLCPMYGSRFGYALSNGTVGVYDKTSRYWRIKSKNHAMSIHAFDLNSDGVNELITGWSNGKVDARSDRTGEVIFKDNFSSAIAGVVEGDYRMDGHIQLICCSVDGEIRGYLPGTAEMRGNLMDTSAEQDLIRELSQKKQNLLLELRNYEENAKAELASPLNEADGHRGIIPANTRLHTTLSVSLGNETQTAHTELRISTSNDTIIRAVLIFAEGIFTGESHVVHPSIHNLSSSICIPIVPPKDVPVDLHLKAFVGYRSSTQFHVFESTRQLPRFSMYALTSLDPASEPISYVNFTIAERAQRVVVWLGQNFLLPEDTHIQNAPFQVCFTSLRNGGHLHIKIKLSGEITINTDDIDLAGDIIQSMASFFAIEDLQVEADFPVYFEELRKVLVKVDEYHSVHQKLSADMADHSNLIRSLLVGAEDARLMRDMKTMKSRYMELYDLNRDLLNGYKIRCNNHTELLGNLKAVNQAIQRAGRLRVGKPKNQVITACRDAIRSNNINTLFKIMRVGTASS
# partner: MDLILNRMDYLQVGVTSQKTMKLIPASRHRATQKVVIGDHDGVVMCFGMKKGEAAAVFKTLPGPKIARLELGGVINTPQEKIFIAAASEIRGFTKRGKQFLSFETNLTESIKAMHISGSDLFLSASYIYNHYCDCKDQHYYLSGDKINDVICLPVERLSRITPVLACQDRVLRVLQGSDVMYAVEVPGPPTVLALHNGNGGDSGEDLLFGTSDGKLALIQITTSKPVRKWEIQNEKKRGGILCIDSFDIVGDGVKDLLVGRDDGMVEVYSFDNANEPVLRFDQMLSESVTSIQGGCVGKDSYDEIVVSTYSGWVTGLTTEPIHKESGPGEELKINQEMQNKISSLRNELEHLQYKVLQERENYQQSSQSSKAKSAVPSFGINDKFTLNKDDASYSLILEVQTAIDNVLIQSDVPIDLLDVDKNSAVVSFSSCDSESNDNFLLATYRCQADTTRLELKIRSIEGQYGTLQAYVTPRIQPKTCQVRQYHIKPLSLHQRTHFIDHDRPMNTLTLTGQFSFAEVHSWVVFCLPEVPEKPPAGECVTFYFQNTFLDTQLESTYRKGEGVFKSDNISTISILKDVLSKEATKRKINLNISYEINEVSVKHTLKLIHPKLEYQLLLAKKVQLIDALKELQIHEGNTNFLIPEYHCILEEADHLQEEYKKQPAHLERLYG
# Variants of: B1
# Settings: with BBS7, Q8IWZ6-2
row,Variant,effect of a mutation on the interaction
1,L538K,with no effect
2,L538R,disrupting interaction strength
3,R539A,with no effect
4,R539E,with no effect
5,R539K,with no effect
6,N540A,disrupting interaction strength
7,N540E,with no effect
8,N540K,with no effect
9,G541A,with no effect
10,G541E,with no effect
11,G541K,with no effect
12,G542A,with no effect
13,G542E,with no effect
14,G542K,with no effect
15,H543A,with no effect
16,H543E,with no effect
17,H543K,with no effect
18,L544A,with no effect
19,L544E,disrupting interaction strength
20,L544K,disrupting interaction strength
21,L544S,disrupting interaction strength
22,H545A,with no effect
23,H545E,with no effect

row,Variant,effect of a mutation on the interaction
1,H545K,disrupting interaction strength
2,I546A,with no effect
3,I546E,with no effect
4,I546K,with no effect
5,K547A,with no effect
6,K547E,disrupting interaction strength
7,I548A,with no effect
8,I548E,with no effect
9,I548K,with no effect
10,K549A,with no effect
11,K549E,with no effect
12,L550A,with no effect
13,L550E,with no effect
14,L550K,with no effect
15,S551A,with no effect
16,S551E,with no effect
17,S551K,with no effect
18,G552A,with no effect
19,G552E,with no effect
20,G552K,with no effect
21,G552R,disrupting interaction strength
22,E553A,with no effect
23,E553K,with no effect

row,Variant,effect of a mutation on the interaction
1,I554A,with no effect
2,I554E,with no effect
3,I554K,with no effect
4,T555A,with no effect
5,T555E,with no effect
6,T555H,disrupting interaction strength
7,T555K,with no effect
8,I556A,with no effect
9,I556E,with no effect
10,I556K,with no effect
11,N557A,with no effect
12,N557E,with no effect
13,N557K,with no effect
14,T558A,with no effect
15,T558E,with no effect
16,T558K,with no effect
17,D559A,with no effect
18,D559E,with no effect
19,D559K,with no effect
20,D560A,disrupting interaction strength
21,D560E,with no effect
22,D560K,with no effect
23,I561A,with no effect

row,Variant,effect of a mutation on the interaction
1,I561C,disrupting interaction strength
2,I561E,with no effect
3,I561K,with no effect
4,D562A,disrupting interaction strength
5,D562E,with no effect
6,D562K,with no effect
7,L563A,with no effect
8,L563E,with no effect
9,L563K,with no effect
10,A564E,with no effect
11,A564H,disrupting interaction strength
12,A564K,with no effect
13,A564R,disrupting interaction strength
14,G565A,with no effect
15,G565E,with no effect
16,G565K,with no effect
17,D566A,with no effect
18,D566E,with no effect
19,D566K,with no effect
20,I567A,with no effect
